# Test results from US20180127503A1 (EUREKA THERAPEUTICS, published 2018).
# B1: ROR2-241 full length human IgG1 antibody (antibody, V domains shown)
# VH: EVQLVQSGAEVKKPGASVKVSCKASGYTFTNYYIHWVRQAPGQGLEWMGIINPTSGRTRYAQRFQGRVTMTRDTSTNTVYMDLSSLRSEDTAMYYCARSGYYWGVNGDQWGQGTLVTVSS
# VL: SYELTQPLSVSVALGQTARITCGGNNIGSKNVHWYQQKPGQAPVLVIYRDSNRPSGIPERFSGSNSGNTATLTISRAQAGDEADYYCQVWDSSIVVFGGGTKLTVLG
# B2: ROR2-240 full length human IgG1 antibody (antibody, V domains shown)
# VH: QITLKESGPELVKPTQTLTLTCTFSGFSLSTSGMSVSWIRQPPGKALEWLARIDWDDDKYYSTSLKTRLTISKDTSKNQVVLTMTNTDPVDTATYYCARGFYLAYGSYDSWGQGTLVTVSS
# VL: QSALTQPASVSGSPGQSITISCTGTSGDVGGYNYVSWYQHHPGKAPKLIIYDVNKRPSGFSDRFSGSKSGNTASLTISGLQAEDEADYYCSSYTSTSTVFGGGTKLTVLG
# notes: also called clone #240 IgG1
# B3: ROR2-23 full length human IgG1 antibody (antibody, V domains shown)
# VH: EVQLVQSGAEVKKPGESLKISCQGSGYRFSKYWIGWVRQMPGKGLEWMGIIYPGDSDTRYSPSFQGQVTISADKSISTAYLQWSSLKASDTAMYYCARSFSSFIYDYWGQGTLVTVSS
# VL: ETTLTQSPGTLSVSPGERATLSCRASQSVSSNLAWYQQKRGQAPRLLIYGASTRATGIPVRFSGSGSGTEFTLTISRLEPEDFAVYYCQQYGRSPLTFGGGTKVDIKR
# notes: The light chain of clone 023 is labelled kappa; also called clone #23; clone #023 IgG1
# Molecular target: T1, human ROR2 expressed on the cell surface (human, UniProt Q01974 34-943)
# T1 construct: Endogenous ROR2 of human tumour cell lines; also called cell surface ROR2; ROR2 on tumour cell lines
# T1 sequence (Q01974 34-943 limits assumed): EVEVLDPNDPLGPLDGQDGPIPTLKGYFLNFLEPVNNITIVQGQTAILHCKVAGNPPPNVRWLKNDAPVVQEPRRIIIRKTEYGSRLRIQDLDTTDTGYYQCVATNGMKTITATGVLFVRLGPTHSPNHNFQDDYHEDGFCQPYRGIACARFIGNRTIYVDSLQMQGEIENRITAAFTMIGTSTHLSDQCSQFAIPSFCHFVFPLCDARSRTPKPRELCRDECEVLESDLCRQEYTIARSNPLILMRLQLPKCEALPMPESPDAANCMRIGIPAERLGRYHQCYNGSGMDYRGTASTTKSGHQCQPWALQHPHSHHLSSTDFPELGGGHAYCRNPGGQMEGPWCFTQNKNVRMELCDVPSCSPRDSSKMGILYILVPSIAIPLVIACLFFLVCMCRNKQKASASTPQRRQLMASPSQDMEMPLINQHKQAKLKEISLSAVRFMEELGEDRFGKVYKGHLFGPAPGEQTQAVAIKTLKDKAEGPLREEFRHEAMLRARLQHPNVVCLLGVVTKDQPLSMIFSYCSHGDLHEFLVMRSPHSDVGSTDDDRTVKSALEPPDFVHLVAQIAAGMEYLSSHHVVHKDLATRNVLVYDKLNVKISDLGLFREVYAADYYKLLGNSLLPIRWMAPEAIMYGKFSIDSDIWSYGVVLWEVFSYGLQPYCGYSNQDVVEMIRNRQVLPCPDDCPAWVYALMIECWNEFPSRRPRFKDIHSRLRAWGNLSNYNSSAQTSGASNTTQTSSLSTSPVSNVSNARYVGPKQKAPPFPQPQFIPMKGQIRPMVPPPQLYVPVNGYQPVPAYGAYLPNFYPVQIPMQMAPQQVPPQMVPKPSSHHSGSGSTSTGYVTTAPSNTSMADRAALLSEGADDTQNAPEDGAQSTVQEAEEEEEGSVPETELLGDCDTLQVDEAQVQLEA
# Assay: flow cytometry, M14 cells (melanoma)
# Parameters: reference not given here
# Method: (§1) Human tumour cell lines were authenticated using short tandem repeat (STR) analysis. They were cultured in RPMI1640 (Cellgro) supplemented with 10% fetal bovine serum (FBS, Life Technologies) at 37° C. in a 5% CO₂ humidified incubator. They were harvested, washed in PBS and reacted with ROR2-IgG at 1 ug/10⁶ tumour cells on ice for an hour. #901-IgG was used as a negative control at the same dose. After washing, a secondary PE-conjugated goat anti-human IgG, Fcγ fragment specific (1:100, Jackson ImmunoResearch) was added for another 30 min incubation. Staining was analyzed on a FACSCalibur (BD Biosciences). ROR2 (full length) antibody binding towards multiple cancer cell lines were compared with Rituxan and Herceptin antibodies. The cancer cell lines were derived from breast cancer, colorectal cancer, mesothelioma, hepatocellular carcinoma, ovarian cancer, osteosarcoma, neuroblastoma, etc. ROR2 #90 antibody could recognize most of the tumour cells tested, and in some cases, the binding intensity was higher than Herceptin (see Tables 8 to 10).
row,binding intensity,Binder
1,12,B1
2,4,B2
3,9,B3

# Molecular target: T1, human ROR2 expressed on the cell surface
# Assay: flow cytometry, H345 cells (SCLC)
# Parameters: unit not given here
# Method: as §1
row,binding intensity,Binder
1,49,B1
2,36,B2
3,34,B3

# Molecular target: T1, human ROR2 expressed on the cell surface
# Assay: flow cytometry, HTB27 cells (breast CA)
# Parameters: unit not given here
# Method: as §1
row,binding intensity,Binder
1,24,B1
2,7,B2
3,58,B3

# Molecular target: T1, human ROR2 expressed on the cell surface
# Assay: flow cytometry, TC32 cells (EW/PNET)
# Parameters: unit not given here
# Method: as §1
row,binding intensity,Binder
1,17,B1
2,4,B2
3,37,B3

# Molecular target: T1, human ROR2 expressed on the cell surface
# Assay: flow cytometry, SKMEL-5 cells (melanoma)
# Parameters: unit not given here
# Method: as §1
row,binding intensity,Binder
1,5,B1
2,1,B2
3,7,B3

# Molecular target: T1, human ROR2 expressed on the cell surface
# Assay: flow cytometry, MCF7-Luc cells (breast CA)
# Parameters: unit not given here
# Method: as §1
row,binding intensity,Binder
1,42,B1
2,39,B2
3,111,B3

# Molecular target: T1, human ROR2 expressed on the cell surface
# Assay: flow cytometry, BE(1)N cells (neuroblastoma)
# Parameters: unit not given here
# Method: as §1
row,binding intensity,Binder
1,352,B1
2,279,B2
3,273,B3

# Molecular target: T2, human ROR2 extracellular domain (ROR2 ECD recombinant protein) (human, UniProt Q01974 34-403)
# T2 construct: also called human ROR2-ECD; hROR2-ECD
# T2 sequence (Q01974 34-403): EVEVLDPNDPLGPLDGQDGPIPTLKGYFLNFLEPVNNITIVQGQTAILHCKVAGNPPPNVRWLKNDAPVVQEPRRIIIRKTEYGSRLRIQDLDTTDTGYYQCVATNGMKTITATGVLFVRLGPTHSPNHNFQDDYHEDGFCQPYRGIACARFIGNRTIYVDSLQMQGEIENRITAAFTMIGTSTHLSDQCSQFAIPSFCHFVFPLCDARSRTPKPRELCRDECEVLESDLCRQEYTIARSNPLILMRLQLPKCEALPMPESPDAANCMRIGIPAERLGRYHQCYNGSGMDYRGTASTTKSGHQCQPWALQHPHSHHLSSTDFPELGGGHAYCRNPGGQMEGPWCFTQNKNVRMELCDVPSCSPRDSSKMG
# Assay: kinetic binding analysis, full length IgG1 on human ROR2-ECD
Kd [nM],koff [s⁻¹],kon [M⁻¹ s⁻¹],Binder
0.31,0.000538,1.74e+06,B1
0.063,4.45e-05,706000,B2
0.164,0.000432,2.63e+06,B3

# Molecular target: T1, human ROR2 expressed on the cell surface
# Assay: flow cytometry, SKBR3 cells (breast CA)
# Parameters: reference not given here
# Method: as §1
row,binding intensity,Binder
1,27,B1
2,5,B2
3,48,B3

# Molecular target: T1, human ROR2 expressed on the cell surface
# Assay: flow cytometry, SKNJB cells (neuroblastoma)
# Parameters: unit not given here
# Method: as §1
row,binding intensity,Binder
1,238,B1
2,199,B2
3,182,B3

# Molecular target: T1, human ROR2 expressed on the cell surface
# Assay: flow cytometry, MCF7 cells (breast CA)
# Parameters: unit not given here
# Method: as §1
row,binding intensity,Binder
1,21,B1
2,3,B2
3,52,B3

# Molecular target: T1, human ROR2 expressed on the cell surface
# Assay: flow cytometry, HTB63 cells (melanoma)
# Parameters: unit not given here
# Method: as §1
row,binding intensity,Binder
1,16,B1
2,5,B2
3,16,B3

# Molecular target: T1, human ROR2 expressed on the cell surface
# Assay: flow cytometry, CRL1427 cells (osteosarcoma)
# Parameters: unit not given here
# Method: as §1
row,binding intensity,Binder
1,54,B1
2,4,B2
3,30,B3

# Molecular target: T1, human ROR2 expressed on the cell surface
# Assay: flow cytometry, RG187 cells (osteosarcoma)
# Parameters: unit not given here
# Method: as §1
row,binding intensity,Binder
1,29,B1
2,4,B2
3,44,B3

# Molecular target: T1, human ROR2 expressed on the cell surface
# Assay: flow cytometry, H524 cells (SCLC)
# Parameters: reference not given here
# Method: as §1
row,binding intensity,Binder
1,32,B1
2,7,B2
3,28,B3

# Molecular target: T1, human ROR2 expressed on the cell surface
# Assay: flow cytometry, TC71 cells (EW/PNET)
# Parameters: unit not given here
# Method: as §1
row,binding intensity,Binder
1,12,B1
2,10,B2
3,46,B3

# Molecular target: T1, human ROR2 expressed on the cell surface
# Assay: flow cytometry, COLO 205 cells (CRC)
# Parameters: unit not given here
# Method: as §1
row,binding intensity,Binder
1,24,B1
2,4,B2
3,26,B3

# Molecular target: T1, human ROR2 expressed on the cell surface
# Assay: flow cytometry, HTB26 (MDA-MB-231) cells (breast CA)
# Parameters: unit not given here
# Method: as §1
row,binding intensity,Binder
1,23,B1
2,4,B2
3,11,B3

# Molecular target: T1, human ROR2 expressed on the cell surface
# Assay: flow cytometry, AU565 cells (breast CA)
# Parameters: unit not given here
# Method: as §1
row,binding intensity,Binder
1,83,B1
2,4,B2
3,102,B3

# Molecular target: T1, human ROR2 expressed on the cell surface
# Assay: flow cytometry, OUMS 27 cells (chondrosarcoma)
# Parameters: unit not given here
# Method: as §1
row,binding intensity,Binder
1,53,B1
2,6,B2
3,71,B3

# Molecular target: T1, human ROR2 expressed on the cell surface
# Assay: flow cytometry, CHP100 cells (EW/PNET)
# Parameters: unit not given here
# Method: as §1
row,binding intensity,Binder
1,16,B1
2,7,B2
3,30,B3

# Molecular target: T1, human ROR2 expressed on the cell surface
# Assay: flow cytometry, HTB132 cells (breast CA)
# Parameters: unit not given here
# Method: as §1
row,binding intensity,Binder
1,45,B1
2,4,B2
3,5,B3

# Molecular target: T1, human ROR2 expressed on the cell surface
# Assay: flow cytometry, OVCAR3 cells (ovarian CA)
# Parameters: unit not given here
# Method: as §1
row,binding intensity,Binder
1,22,B1
2,4,B2
3,35,B3

# Molecular target: T1, human ROR2 expressed on the cell surface
# Assay: flow cytometry, SKES-1 cells (EW/PNET)
# Parameters: unit not given here
# Method: as §1
row,binding intensity,Binder
1,12,B1
2,5,B2
3,22,B3

# Molecular target: T1, human ROR2 expressed on the cell surface
# Assay: flow cytometry, SKMEL28 cells (melanoma)
# Parameters: reference not given here
# Method: as §1
row,binding intensity,Binder
1,20,B1
2,4,B2
3,20,B3

# Molecular target: T1, human ROR2 expressed on the cell surface
# Assay: flow cytometry, LAN-1 cells (neuroblastoma)
# Parameters: unit not given here
# Method: as §1
row,binding intensity,Binder
1,68,B1
2,37,B2
3,34,B3

# Molecular target: T1, human ROR2 expressed on the cell surface
# Assay: flow cytometry, H69 cells (SCLC)
# Parameters: unit not given here
# Method: as §1
row,binding intensity,Binder
1,131,B1
2,9,B2
3,9,B3
